T1: NaPi2b expressed on IGROV-1 cells (Homo sapiens, UniProt O95436)
T1 construct: IGROV-1 cells express endogenous NaPi2b at a high level; endogenous in cells; host or cells: IGROV-1
T1 sequence (O95436 1-690): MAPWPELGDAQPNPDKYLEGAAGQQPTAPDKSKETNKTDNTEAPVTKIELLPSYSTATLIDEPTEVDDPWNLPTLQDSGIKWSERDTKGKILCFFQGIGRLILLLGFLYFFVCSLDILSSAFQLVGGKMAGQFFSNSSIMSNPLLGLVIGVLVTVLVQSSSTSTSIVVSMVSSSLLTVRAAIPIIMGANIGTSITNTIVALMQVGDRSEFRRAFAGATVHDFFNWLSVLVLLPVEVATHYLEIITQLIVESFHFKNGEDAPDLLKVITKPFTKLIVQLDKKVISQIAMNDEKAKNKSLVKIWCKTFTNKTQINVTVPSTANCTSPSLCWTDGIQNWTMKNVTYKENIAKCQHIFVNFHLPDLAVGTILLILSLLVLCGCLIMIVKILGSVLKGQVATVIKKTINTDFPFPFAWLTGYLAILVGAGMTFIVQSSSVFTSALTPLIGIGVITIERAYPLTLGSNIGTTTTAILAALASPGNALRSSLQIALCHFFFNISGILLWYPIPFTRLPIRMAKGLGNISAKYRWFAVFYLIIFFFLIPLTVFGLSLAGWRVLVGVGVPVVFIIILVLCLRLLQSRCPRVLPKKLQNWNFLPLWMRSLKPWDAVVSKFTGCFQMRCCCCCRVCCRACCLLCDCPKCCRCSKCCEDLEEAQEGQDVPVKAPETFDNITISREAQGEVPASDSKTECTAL

B1: v29451: humanized anti-NaPi2b IgG1/kappa antibody H2L3; VH SEQ ID NO:25, VL SEQ ID NO:30 (antibody, V domains shown)
VH: QVQLVQSGAEVKKPGASVKVSCKASGFTFTSYNVHWVRQAPGQGLEWIAAISPGNGDLSYAQKFQGRVTMTVDTSTSTVYMELSSLRSEDTAVYYCARGRTGMGAVDYWGQGTLVTVSS
VL: DVQMTQSPSSLSASVGDRVTITCRASQDVYSYLNWYQQKPGKAVKLLIYYTSRLQSGVPSRFSGSGSGTDYTLTISSLQPEDIATYYCQQYNIFPWTFGQGTKLEIK
modifications: v29451, v29455, v29459 VH (H2); v29449, v29450, v29451, v29452 VL (L3)
B2: v29459: humanized anti-NaPi2b IgG1/kappa antibody H2L1; VH SEQ ID NO:25, VL SEQ ID NO:28 (antibody, V domains shown)
VH: QVQLVQSGAEVKKPGASVKVSCKASGFTFTSYNVHWVRQAPGQGLEWIAAISPGNGDLSYAQKFQGRVTMTVDTSTSTVYMELSSLRSEDTAVYYCARGRTGMGAVDYWGQGTLVTVSS
VL: DIQMTQSPSSLSASVGDRVTITCRASQDVYSYLNWYQQKPGKAPKLLIYYTSRLQSGVPSRFSGSGSGTDFTLTISSLQPEDFATYYCQQYNIFPWTFGQGTKLEIK
modifications: v29451, v29455, v29459 VH (H2); v29457, v29458, v29459, v29460 VL (L1)
B3: v29453: humanized anti-NaPi2b IgG1/kappa antibody H4L2; VH SEQ ID NO:27, VL SEQ ID NO:29 (antibody, V domains shown)
VH: QVQLVQSGAEVKKPGASVKMSCKASGFTFTSYNVHWVRQAPGQGLEWIAAISPGNGDLSYAQKFQGRATLTVDRSTSTAYMELSSLRSEDTAVYYCARGRTGMGAVDYWGQGTLVTVSS
VL: DVQMTQSPSSLSASVGDRVTITCRASQDVYSYLNWYQQKPGKAVKLLIYYTSRLQSGVPSRFSGSGSGTDYTLTISSLQPEDFATYYCQQYNIFPWTFGQGTKLEIK
modifications: v29449, v29453, v29457 VH (H4); v29453, v29454, v29455, v29456 VL (L2)
B4: v29458: humanized anti-NaPi2b IgG1/kappa antibody H3L1; VH SEQ ID NO:26, VL SEQ ID NO:28 (antibody, V domains shown)
VH: QVQLVQSGAEVKKPGASVKMSCKASGFTFTSYNVHWVRQAPGQGLEWIAAISPGNGDLSYAQKFQGRATLTVDTSTSTAYMELSSLRSEDTAVYYCARGRTGMGAVDYWGQGTLVTVSS
VL: DIQMTQSPSSLSASVGDRVTITCRASQDVYSYLNWYQQKPGKAPKLLIYYTSRLQSGVPSRFSGSGSGTDFTLTISSLQPEDFATYYCQQYNIFPWTFGQGTKLEIK
modifications: v29450, v29454, v29458 VH (H3); v29457, v29458, v29459, v29460 VL (L1)
B5: v29449: humanized anti-NaPi2b IgG1/kappa antibody H4L3; VH SEQ ID NO:27, VL SEQ ID NO:30 (antibody, V domains shown)
VH: QVQLVQSGAEVKKPGASVKMSCKASGFTFTSYNVHWVRQAPGQGLEWIAAISPGNGDLSYAQKFQGRATLTVDRSTSTAYMELSSLRSEDTAVYYCARGRTGMGAVDYWGQGTLVTVSS
VL: DVQMTQSPSSLSASVGDRVTITCRASQDVYSYLNWYQQKPGKAVKLLIYYTSRLQSGVPSRFSGSGSGTDYTLTISSLQPEDIATYYCQQYNIFPWTFGQGTKLEIK
modifications: v29449, v29453, v29457 VH (H4); v29449, v29450, v29451, v29452 VL (L3)
B6: v29457: humanized anti-NaPi2b IgG1/kappa antibody H4L1; VH SEQ ID NO:27, VL SEQ ID NO:28 (antibody, V domains shown)
VH: QVQLVQSGAEVKKPGASVKMSCKASGFTFTSYNVHWVRQAPGQGLEWIAAISPGNGDLSYAQKFQGRATLTVDRSTSTAYMELSSLRSEDTAVYYCARGRTGMGAVDYWGQGTLVTVSS
VL: DIQMTQSPSSLSASVGDRVTITCRASQDVYSYLNWYQQKPGKAPKLLIYYTSRLQSGVPSRFSGSGSGTDFTLTISSLQPEDFATYYCQQYNIFPWTFGQGTKLEIK
modifications: v29449, v29453, v29457 VH (H4); v29457, v29458, v29459, v29460 VL (L1)
B7: v29460: humanized anti-NaPi2b IgG1/kappa antibody H1L1; VH SEQ ID NO:24, VL SEQ ID NO:28 (antibody, V domains shown)
VH: QVQLVQSGAEVKKPGASVKVSCKASGFTFTSYNVHWVRQAPGQGLEWMGAISPGNGDLSYAQKFQGRVTMTRDTSTSTVYMELSSLRSEDTAVYYCARGRTGMGAVDYWGQGTLVTVSS
VL: DIQMTQSPSSLSASVGDRVTITCRASQDVYSYLNWYQQKPGKAPKLLIYYTSRLQSGVPSRFSGSGSGTDFTLTISSLQPEDFATYYCQQYNIFPWTFGQGTKLEIK
modifications: v29452, v29456, v29460 VH (H1); v29457, v29458, v29459, v29460 VL (L1)
B8: v29454: humanized anti-NaPi2b IgG1/kappa antibody H3L2; VH SEQ ID NO:26, VL SEQ ID NO:29 (antibody, V domains shown)
VH: QVQLVQSGAEVKKPGASVKMSCKASGFTFTSYNVHWVRQAPGQGLEWIAAISPGNGDLSYAQKFQGRATLTVDTSTSTAYMELSSLRSEDTAVYYCARGRTGMGAVDYWGQGTLVTVSS
VL: DVQMTQSPSSLSASVGDRVTITCRASQDVYSYLNWYQQKPGKAVKLLIYYTSRLQSGVPSRFSGSGSGTDYTLTISSLQPEDFATYYCQQYNIFPWTFGQGTKLEIK
modifications: v29450, v29454, v29458 VH (H3); v29453, v29454, v29455, v29456 VL (L2)
B9: v29450: humanized anti-NaPi2b IgG1/kappa antibody H3L3; VH SEQ ID NO:26, VL SEQ ID NO:30 (antibody, V domains shown)
VH: QVQLVQSGAEVKKPGASVKMSCKASGFTFTSYNVHWVRQAPGQGLEWIAAISPGNGDLSYAQKFQGRATLTVDTSTSTAYMELSSLRSEDTAVYYCARGRTGMGAVDYWGQGTLVTVSS
VL: DVQMTQSPSSLSASVGDRVTITCRASQDVYSYLNWYQQKPGKAVKLLIYYTSRLQSGVPSRFSGSGSGTDYTLTISSLQPEDIATYYCQQYNIFPWTFGQGTKLEIK
modifications: v29450, v29454, v29458 VH (H3); v29449, v29450, v29451, v29452 VL (L3)
B10: v29455: humanized anti-NaPi2b IgG1/kappa antibody H2L2; VH SEQ ID NO:25, VL SEQ ID NO:29 (antibody, V domains shown)
VH: QVQLVQSGAEVKKPGASVKVSCKASGFTFTSYNVHWVRQAPGQGLEWIAAISPGNGDLSYAQKFQGRVTMTVDTSTSTVYMELSSLRSEDTAVYYCARGRTGMGAVDYWGQGTLVTVSS
VL: DVQMTQSPSSLSASVGDRVTITCRASQDVYSYLNWYQQKPGKAVKLLIYYTSRLQSGVPSRFSGSGSGTDYTLTISSLQPEDFATYYCQQYNIFPWTFGQGTKLEIK
modifications: v29451, v29455, v29459 VH (H2); v29453, v29454, v29455, v29456 VL (L2)

Columns and labels:
[1] = Thermal stability by differential scanning calorimetry (DSC); type: physicochemical; settings: 0.4 mg/mL in PBS, scan 20° C. to 100° C. at 60° C./hr
Procedure: The thermal stability of the humanized antibody variants was assessed by differential scanning calorimetry (DSC) as described below.
400 μL of purified samples primarily at concentrations of 0.4 mg/mL in PBS were used for DSC analysis with a VP-Capillary DSC (Malvern Panalytical Inc., Westborough, MA). At the start of each DSC run, 5 buffer blank injections were performed to stabilize the baseline, and a buffer injection was placed before each sample injection for referencing. Each sample was scanned from 20° C. to 100° C. at a 60° C./hr rate, with low feedback, 8 sec filter, 3 min pre-scan thermostat, and 70 psi nitrogen pressure. The resulting thermograms were referenced and analyzed using Origin 7 software (OriginLab Corporation, Northampton, MA) to determine melting temperature (Tm) as an indicator of thermal stability.

[2] = molecular target: T1, NaPi2b expressed on IGROV-1 cells; assay: Cellular binding of bivalent antibodies to IGROV-1 cells by flow cytometry (Example 13); settings: IGROV-1, 24 hours at 4° C.; NB = no cellular binding
Procedure: IGROV-1 cells express endogenous NaPi2b at a high level.
Briefly, cells were seeded at 50,000 cells/well in conical-bottom 96-well plates and treated with test antibody for 24 hours at 4° C. to prevent internalization. Palivizumab (anti-RSV antibody, v22277) was included as a negative control. […] Following incubation, cells were washed and stained with anti-Human IgG Fc AF647 conjugate (Jackson Immuno Research Labs, West Grove, PA; Cat. No. 109-605-098) at 4° C. for 30 min. Following incubation and washing, fluorescence was detected by flow cytometry on a BD LSRFortessa™ Cell Analyzer (BD Biosciences, Franklin Lake, NJ) with 1,000 minimum events collected per well. The AF647/APC-A GeoMean (fluorescence signal geometric mean, proportional to anti-Human AF647 binding) was calculated for the live cell population using FlowJo™ Version 10.8.1 (BD Biosciences, Franklin Lake, NJ) and plotted for each test antibody using GraphPad Prism Version 9 (GraphPad Software, San Diego, CA).

Row | Molecule | Fab Tm [1] [°C] | Bmax (MFI) [2] | Curve Hill Slope (h) [2]
1 | B1 | 83.0 | 46,170 MFI | 1.1
2 | B2 | 83.1 | 40,941 MFI | 1.2
3 | B3 | 78.9 | 44,480 MFI | 1.2
4 | B4 | 81.6 | 40,793 MFI | 1.1
5 | B5 | 80.0 | 44,460 MFI | 1.3
6 | B6 | 80.5 | 44,539 MFI | 1.0
7 | B7 | 80.3 | 40,071 MFI | 1.2
8 | B8 | 79.7 | 42,278 MFI | 1.0
9 | B9 | 81.0 | 43,809 MFI | 1.2
10 | B10 | 81.5 | 41,917 MFI | 1.1
